According to patent US20180128830A1, “DETECTION OF HUMAN CYTOMEGALOVIRUS IN BREAST CANCER” (priority 2015, published 2018):
Where “and” joins values, the source holds several entries; their conditions need not be identical. Equal entries are not always repeated.

System: MDA-MB-231 cells
Test: Transcriptional profiling, Human Tumor Metastasis RT2 Profiler PCR Array
Type: cell-based
Settings: 100 ng/mL, 5 hrs
Protocol: RNA was harvested from 10×10^6 MDA-MB-231 cells that were mock treated or treated with 100 ng/mL cmvIL-10 or hIL-10 for 5 hrs using the RNeasy Midi Kit and RNAse-Free DNase set (Qiagen, Valencia, Calif.). From the isolated RNA, cDNA was prepared using the RT^2 First Strand Kit (SA Biosciences, Frederick, Md.) and subsequently loaded into a 96-well breast cancer metastasis profiler PCR array (PAHS-028ZD) with system RT^2 SYBR Green Mastermix (SA Biosciences). The plates were run using the CFX96 Real-Time system cycler (BioRad, Hercules, Calif.) with the following amplification program: 95° C. for 10 min, 95° C. for […] with a slow ramp rate for 1.0 c/sec and 60° C. for 1 min. The data from three biological replicates for each treatment was analyzed by the ΔΔCT method according to manufacturer's instructions using the RT^2 profiler PCR array data analysis program located on the SABiosciences web portal and is reported as fold change relative to control.

B1: cmvIL-10 (protein)
chain: ATTTTIKNTKPQCRPEDYATRLQDLRVTFHRVKPTLQREDDYSVWLDGTVVKGCWGCSVMDWLLRRYLEIVFPAGDHVYPGLKTELHSMRSTLESIYKDMRQCPLLGCGDKSVISRLSQEAERKSDNGTRKGLSELDTLFSRLEEYLHSRK
Fold Change vs. Mock, ACTB (ACTB mRNA): 1.0986 fold
Fold Change vs. Mock, APC (APC mRNA): 0.9681 fold
Fold Change vs. Mock, B2M (B2M mRNA): 0.9597 fold
Fold Change vs. Mock, BRMS1 (BRMS1 mRNA): 0.8029 fold
Fold Change vs. Mock, CCL7 (CCL7 mRNA): 0.8113 fold
Fold Change vs. Mock, CD44 (CD44 mRNA): 1.1473 fold
Fold Change vs. Mock, CD82 (CD82 mRNA): 0.6917 fold
Fold Change vs. Mock, CDH1 (CDH1 mRNA): 0.6288 fold
CDH6 fold change expressed as negative fold (down-regulation) (CDH6 mRNA): −1.23 fold
Fold Change vs. Mock, CDH6 (CDH6 mRNA): 0.811 fold and 0.8113 fold
Fold Change vs. Mock, CDH11 (CDH11 mRNA): 0.9033 fold
Fold Change vs. Mock, CDKN2A (CDKN2A mRNA): 0.8113 fold
Fold Change vs. Mock, CHD4 (CHD4 mRNA): 0.8970 fold
Fold Change vs. Mock, COL4A2 (COL4A2 mRNA): 1.0929 fold
Fold Change vs. Mock, CST7 (CST7 mRNA): 0.7149 fold
Fold Change vs. Mock, CTBP1 (CTBP1 mRNA): 0.6245 fold
Fold Change vs. Mock, CTNNA1 (CTNNA1 mRNA): 0.8816 fold
Fold Change vs. Mock, CTSK (CTSK mRNA): 0.8043 fold
Fold Change vs. Mock, CTSL1 (CTSL1 mRNA): 0.8212 fold
Fold Change vs. Mock, CXCL12 (CXCL12 mRNA): 0.8113 fold
Fold Change vs. Mock, CXCR4 (CXCR4 mRNA): 0.8084 fold
Fold Change vs. Mock, DENR (DENR mRNA): 0.9816 fold
Fold Change vs. Mock, EPHB2 (EPHB2 mRNA): 0.6693 fold
Fold Change vs. Mock, ETV4 (ETV4 mRNA): 0.5418 fold
Fold Change vs. Mock, EWSR1 (EWSR1 mRNA): 0.9465 fold
Fold Change vs. Mock, FAT1 (FAT1 mRNA): 1.2752 fold
Fold Change vs. Mock, FGFR4 (FGFR4 mRNA): 0.5362 fold
Fold Change vs. Mock, FLT4 (FLT4 mRNA): 0.8113 fold
Fold Change vs. Mock, FN1 (FN1 mRNA): 1.1044 fold
Fold Change vs. Mock, FXYD5 (FXYD5 mRNA): 0.9400 fold
Fold Change vs. Mock, GAPDH (GAPDH mRNA): 0.9335 fold
Fold Change vs. Mock, GNRH1 (GNRH1 mRNA): 0.9970 fold
Fold Change vs. Mock, HGF (HGF mRNA): 0.8113 fold
Fold Change vs. Mock, HPRT1 (HPRT1 mRNA): 1.2796 fold
Fold Change vs. Mock, HPSE (HPSE mRNA): 0.8620 fold
Fold Change vs. Mock, HRAS (HRAS mRNA): 1.0075 fold
Fold Change vs. Mock, HTATIP2 (HTATIP2 mRNA): 0.7439 fold
Fold Change vs. Mock, IGF1 (IGF1 mRNA): 0.8635 fold
Fold Change vs. Mock, IL1B (IL1B mRNA): 0.6266 fold
Fold Change vs. Mock, IL18 (IL18 mRNA): 0.7362 fold
Fold Change vs. Mock, ITGA7 (ITGA7 mRNA): 0.561 fold and 0.5609 fold
ITGA7 fold change expressed as negative fold (down-regulation) (ITGA7 mRNA): −1.78 fold
Fold Change vs. Mock, ITGB3 (ITGB3 mRNA): 1.0198 fold
Fold Change vs. Mock, KISS1R (KISS1R mRNA): 0.8113 fold
Fold Change vs. Mock, KISS1 (KISS1 mRNA): 1.1394 fold
Fold Change vs. Mock, KRAS (KRAS mRNA): 1.0304 fold
Fold Change vs. Mock, MCAM (MCAM mRNA): 0.768 fold and 0.7688 fold
MCAM fold change expressed as negative fold (down-regulation) (MCAM mRNA): −1.32 fold
